From PMC2118908

Biological target: gp41 of HIV-1/IIIB virions (virus stock, culture supernatant) (HIV-1 (isolate IIIB)) (UniProt P04578)
Test: SEC + ELISA

Substance: gp120 of HIV-1/IIIB virions (virus stock, culture supernatant) (from UniProt P04578 33-511) (natural protein)
- percent of total gp120 virion bound (virus + sCD4): 24%
- percent of total gp120 virion bound (virus + sCD4 + thrombin): 18%
- percent of total gp120 virion bound (virus + thrombin + sCD4): 20%
- percent of total gp120 virion bound (virus + thrombin): 59%
- percent of total gp120 virion bound (virus alone): 57%
- percent of total gp120 virion-bound (virus stock): 55%
- reduction of virion bound gp120 after 10 h at 4C with sCD4: 10%
